The results in this text go back to US20170190775A1 (published 2017).

What all share (test): SPR, TREM-1 variant captured by anti-His, Fab as analyte
In general terms: In SPR one partner is held on a chip, and binding of the other changes the refractive index at the surface.

The target in assay [1] is T1, cynomolgus TREM-1 partly humanised with back mutation 3 (construct 0242) (cynomolgus monkey).
T1 construct: Printed N50N = N50 kept
T1 chain: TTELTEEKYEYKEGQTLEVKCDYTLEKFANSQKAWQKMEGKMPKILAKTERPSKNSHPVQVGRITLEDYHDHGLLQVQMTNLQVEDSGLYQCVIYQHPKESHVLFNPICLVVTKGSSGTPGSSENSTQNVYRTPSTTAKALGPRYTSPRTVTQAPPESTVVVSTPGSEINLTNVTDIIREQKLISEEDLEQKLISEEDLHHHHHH
Here is the method:
(§1) Binding studies were performed on a ProteOn Analyzer that measures molecular interactions in real time through surface plasmon resonance. Experiments were run at 25° C. and the samples were stored at 15° C. in the sample compartment. The signal (RU, response units) reported by the ProteOn is directly correlated to the mass on the individual sensor chip surfaces in six parallel flow cells. Anti-His monoclonal antibody was immobilised onto 6 parallel flow cells of a GLM sensor chip using a 1:1 mixture of 0.4 M EDAC [1-ethyl-3-(3-dimethylaminopropyl) carbodiimide hydrochloride] and 0.1 M Sulfo-NHS [N-hydroxysulfosuccinimide]. […] Immobilisation was performed with all steps in horizontal direction. […] Cell culture medium from HEK 293 cells expressing wild type or different mutated variants of human or cynomolgus TREM-1 ECD was diluted 40-60 times in running buffer (10 mM HEPES, 150 mM NaCl, 3 mM EDTA, 0.05% surfactant P20, pH 7.4). TREM-1 proteins were injected over immobilised anti-His capture antibody in the vertical direction at 30 μl/min for 60 s. […] Each Fab was injected over parallel flow cells in the horizontal direction to allow for kinetic analysis of binding to TREM-1 variants captured by anti-His antibody. Prior to injection each Fab was diluted to 0, 5.5 (in one experiment), 16.7 and 50 nM in running buffer, and injected at 100 μl/min for 250 s (association time). The dissociation time following these injections was monitored for 10 minutes. The GLM chip was regenerated after each interaction cycle of TREM-1 and Fab via two 18 s injections of 10 mM Glycine and 50 mM NaOH at 100 μl/min. This regeneration step removed the TREM-1 variants and any bound Fab from the anti-His antibody surface, and allowed for the subsequent binding of the next interaction pair.

The target of assay [2] is T2, A24T/Y28F/N30S/R32Q/P70H-cTREM-1-Cmyc2-His6 (construct 0244), partly humanised with back mutation 5 (cynomolgus monkey).
T2 construct: the entry already carries the mutations
T2 chain: T1 chain with N30S, K54E
Here is the method:
as §1

For assay [3], the target named is T3, cynomolgus TREM-1 partly humanised with back mutation 4 (construct 0243) (cynomolgus monkey).
T3 construct: Printed R52R = R52 kept
T3 chain: T1 chain with N30S, Q32R
Here is the method:
as §1

Assay [4] addresses T4, cynomolgus TREM-1 partly humanised with back mutation 2 (construct 0241) (cynomolgus monkey).
T4 construct: Printed Y48Y = Y48 kept
T4 chain: T1 chain with F28Y, N30S
Here is the method:
as §1

Assay [5] deals with T5, cynomolgus TREM-1 partly humanised (construct 0239) (cynomolgus monkey).
T5 chain: T1 chain with N30S
Here is the method: as §1

Assay [6] deals with T6, A24T/Y28F/N30S/R32Q/E54K-cTREM-1-Cmyc2-His6 (construct 0245), partly humanised with back mutation 6 (cynomolgus monkey).
T6 construct: the entry already carries the mutations
T6 chain: T1 chain with N30S, H70P
Here is the method:
as §1

The target in assay [7] is T7, cTREM-1-Cmyc2-His6 (construct 0238), cynomolgus TREM-1 wt (cynomolgus monkey).
T7 construct: ECD with C-terminal cmyc2-His6 tag; also called wt cTREM-1
T7 chain: T1 chain with T24A, F28Y, Q32R, K54E, H70P
Here is the method:
as §1

Assay [8] deals with T8, cynomolgus TREM-1 partly humanised with back mutation 1 (construct 0240) (cynomolgus monkey).
T8 construct: Printed A44A = A44 kept
T8 chain: T1 chain with T24A, N30S
Here is the method:
as §1

Positions count from the first letter of the chain named.

B1: Fab region of mAb 0170 (Fab, V domains shown)
VH: EVQLVESGGGLVQPGGSLKLSCAASGFTFSTYAMHWVRQASGKGLEWVGRIRTKSSNYATYYAASVKGRFTISRDDSKNTAYLQMNSLKTEDTAVYYCTRDMGIRRQFAYWGQGTLVTVSS
VL: DIVLTQSPDSLAVSLGERATINCRASESVDTFDYSFLHWYQQKPGQPPKLLIYRASNLESGVPDRFSGSGSGTDFTLTISSLQAEDVAVYYCQQSNEDPYTFGQGTKLEIKR
notes: also called 0170 Fab; Fab 0170
Turning to B1, the Kd in assay [1] was found to be 1 nM; in assay [2], 1 nM; in assay [4], 2 nM; in assay [5] it was 2 nM; in assay [6], 1 nM; in assay [7] it was 1 nM. The same molecule displayed a Kd in assay [8] of 2 nM. The binding result in assay [3] was “no binding (tested: up to 50 nM Fab)”.

Broadly, the Kd is the constant that tells how readily two partners part at equilibrium. Read a high Kd as weaker binding.
